Results on 1 substance are retold here after publication PMC8232910.

What is called stoichiometry N is a count of units in the complex or per binding partner.

The test addresses EccD5 (Mycobacterium xenopi ESX-5 type VII secretion system) (Mycobacterium xenopi). Kind of test: cryo-EM structure; purified ESX-5 complex (void peak fraction) in 20 mM tris (pH 8), 150 mM NaCl; C6 global map 3.4 Å and locally refined map of the cytosolic part 3.0 Å; de novo atomic model of the transmembrane and membrane-adjacent cytoplasmic regions.

Consider “EccD5 (Mycobacterium xenopi ESX-5 type VII secretion system) (natural protein)”, for which the stoichiometry N turned out to be 2.
